Laboratory results from patent publication US20050221395A1, “Methods and products based on oligomerization of stress proteins” (priority 2002, published 2005).

Experiments:
[1] = tested on: murine antigen presenting cells; experiment: nitric oxide (NO) secretion by antigen presenting cells; type: cell-based
Description: (§1) Further experiments indiate that dimer content correlates with the ability of gp96 to stimulate chemokine/nitric oxide release by antigen presenting cells. Gp96 purified from the Meth-A murine fibrosarcoma tumors, subjected to both thermal and pH perturbations. This material was analyzed by SEC and NECA binding for its ability to induce murine antigen presenting cells to secrete MCP-1 and nitric oxide. […] NECA ligand binding and both MCP-1 and NO production decreased concomitantly with the loss of dimer. A similar trend was observed upon exposure of gp96 to pH 3, but not pH 7 or 9.

[2] = tested on: murine antigen presenting cells; experiment: MCP-1 secretion by antigen presenting cells; type: cell-based
Description: as §1

NECA ligand binding = experiment: NECA ligand binding
Description: Dimer content also correlates with the ability of gp96 to bind NECA. Using the gp96-peptide complex isolated from CT-26 tumors, aliquots of each preparation were also analyzed for NECA ligand binding.

[3] = % dimer by size exclusion chromatography (SEC); type: physicochemical
Description: Gp96-peptide complex was isolated from murine CT-26 tumors. Separate aliquots of each preparation were either maintained at 4° C. (untreated) or subjected to mild heat treatment to denature the complex.
HPLC size exclusion chromatography is currently being optimized and has been run under a few different formats. The column was either a TSK 3000SWXL (Toso Haus) or a Superose 6 (Amersham Pharmacia) equilibrated in 10 mM phosphate buffer, pH 7.1, with 300 mM NaCl. All experiments were run at room temperature on a Waters Alliance or HP 1100 HPLC systems at a flow rate of 0.5 mL/min. The following results for human tumor derived gp96 (reported in Table 3, below) were all analyzed on the Superose 6 column. % dimer values represent the area percent of the dimer peak relative to total peak area.

- NECA binding ability (NECA ligand binding; heated to 50° C. and 60° C., at 30 minutes (FIG. 2B)): Neither sample of gp96 could bind NECA
- NECA binding ability (NECA ligand binding; pH 3.0 (FIG. 2F)): markedly reduced
B1: gp96: Gp96 purified from the Meth-A murine fibrosarcoma tumors, subjected to thermal and pH perturbations (FIG. 2) (protein, UniProt P08113 22-802, looked up)
Endoplasmin: DDEVDVDGTVEEDLGKSREGSRTDDEVVQREEEAIQLDGLNASQIRELREKSEKFAFQAEVNRMMKLIINSLYKNKEIFLRELISNASDALDKIRLISLTDENALAGNEELTVKIKCDKEKNLLHVTDTGVGMTREELVKNLGTIAKSGTSEFLNKMTEAQEDGQSTSELIGQFGVGFYSAFLVADKVIVTSKHNNDTQHIWESDSNEFSVIADPRGNTLGRGTTITLVLKEEASDYLELDTIKNLVRKYSQFINFPIYVWSSKTETVEEPLEEDEAAKEEKEESDDEAAVEEEEEEKKPKTKKVEKTVWDWELMNDIKPIWQRPSKEVEEDEYKAFYKSFSKESDDPMAYIHFTAEGEVTFKSILFVPTSAPRGLFDEYGSKKSDYIKLYVRRVFITDDFHDMMPKYLNFVKGVVDSDDLPLNVSRETLQQHKLLKVIRKKLVRKTLDMIKKIADEKYNDTFWKEFGTNIKLGVIEDHSNRTRLAKLLRFQSSHHSTDITSLDQYVERMKEKQDKIYFMAGSSRKEAESSPFVERLLKKGYEVIYLTEPVDEYCIQALPEFDGKRFQNVAKEGVKFDESEKTKESREATEKEFEPLLNWMKDKALKDKIEKAVVSQRLTESPCALVASQYGWSGNMERIMKAQAYQTGKDISTNYYASQKKTFEINPRHPLIRDMLRRIKEDEDDKTVMDLAVVLFETATLRSGYLLPDTKAYGDRIERMLRLSLNIDPEAQVEEEPEEEPEDTSEDAEDSEQDEGEEMDAGTEEEEEETEKESTEKDEL
modifications: Meth-A tumor derived
- ability to stimulate murine APC secretion of NO ([1]; heated to 50° C. and 60° C. for 30 minutes (FIG. 2D)): rapid drop
- NO secretion by murine APCs ([1]; pH 3.0 (FIG. 2H)): markedly reduced
- ability to stimulate murine APC secretion of MCP-1 ([2]; heated to 50° C. and 60° C. for 30 minutes (FIG. 2C)): rapid drop
- MCP-1 secretion by murine APCs ([2]; pH 3.0 (FIG. 2G)): markedly reduced
- dimer level ([3]; heated at 50° C. and 60° C., at 30 minutes (FIG. 2A)): Neither sample contained dimers
- dimer levels ([3]; pH 3.0 (FIG. 2E)): markedly reduced
